Assay results: article PMC6327041 (Nature Communications, 2019)

Molecular target: T1, KDM5A1-797 ΔPHD1 (Homo sapiens, UniProt P29375, DEL288-347/INS286GSGSGSG)
T1 construct: The KDM5A1-797 ΔPHD1 construct was generated after removing the residues Ser287-Lys347; His (N, cleaved yes); made in house; host or cells: Sf21 insect cells (baculovirus)
T1 sequence (P29375 with tags, fused parts or gaps INS286GSGSGSG/DEL288-347): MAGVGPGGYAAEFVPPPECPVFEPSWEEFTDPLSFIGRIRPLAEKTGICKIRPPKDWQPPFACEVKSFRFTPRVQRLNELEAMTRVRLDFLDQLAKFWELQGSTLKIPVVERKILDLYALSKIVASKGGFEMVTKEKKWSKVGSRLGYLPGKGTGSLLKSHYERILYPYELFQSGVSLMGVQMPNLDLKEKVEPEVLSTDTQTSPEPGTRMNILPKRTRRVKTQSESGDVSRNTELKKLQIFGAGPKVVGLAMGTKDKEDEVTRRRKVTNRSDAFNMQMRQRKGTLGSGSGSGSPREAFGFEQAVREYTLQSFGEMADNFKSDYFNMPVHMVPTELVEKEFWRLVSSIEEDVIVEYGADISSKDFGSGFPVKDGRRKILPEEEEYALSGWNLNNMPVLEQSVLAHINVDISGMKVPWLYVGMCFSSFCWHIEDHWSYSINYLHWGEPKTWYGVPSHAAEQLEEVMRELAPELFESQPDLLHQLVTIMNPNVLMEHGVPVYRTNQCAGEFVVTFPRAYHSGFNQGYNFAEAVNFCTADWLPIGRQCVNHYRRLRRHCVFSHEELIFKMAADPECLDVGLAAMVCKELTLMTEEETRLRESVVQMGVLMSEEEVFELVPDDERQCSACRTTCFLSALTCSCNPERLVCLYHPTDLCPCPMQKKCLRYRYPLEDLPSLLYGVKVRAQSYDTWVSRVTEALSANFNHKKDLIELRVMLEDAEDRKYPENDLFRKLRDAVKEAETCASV
Test: KDM5A ΔPHD1 demethylation, formaldehyde release assay
Assay type: biochemical
Method: The KDM5A1-797 ΔPHD1 construct was generated after removing the residues Ser287-Lys347 and replacing them with a (GS)4 linker before cloning into a pFASTBAC HTA vector. The protocol for expression and purification of the KDM5A1-797 ΔPHD1 construct was the same as WT.
Michaelis–Menten parameters were determined using Graphpad Prism.

[1] = KDM5A1-797 ΔPHD1, n ≥ 3, s.e.m.

kcat/Km (KDM5A1-797 ΔPHD1): 57.7 ± 13.7 M⁻¹ s⁻¹ | Km [1]: 819 ± 133 µM | kcat [1]: 0.0472 ± 0.0035 s⁻¹ | increase in Km on PHD1 deletion (ΔPHD1 vs WT KDM5A1-797): eightfold
Substance: Ac-H3K4me3 21mer: N-terminally acetylated 21mer H3K4me3 peptide, catalytic domain substrate
